Paper PMC10397247
Values belong to the binder of their own block, whether it stands above or below them.

Key:
4H3094-AA = target: T1, 4H3094-AA; assay: two-hybrid library CCmax; details: mean of both orientations;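 note: natural log of median RNA to DNA barcode read ratio; higher means stronger binding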
T1 chain: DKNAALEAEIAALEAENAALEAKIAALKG

4H432-AA = target: T2, 4H432-AA; assay: two-hybrid library CCmax; details: mean of both orientations;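 note: natural log of median RNA to DNA barcode read ratio; higher means stronger binding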
T2 chain: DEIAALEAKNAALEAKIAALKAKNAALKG

4H2961-AA = target: T3, 4H2961-AA; assay: two-hybrid library CCmax; details: mean of both orientations;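 note: natural log of median RNA to DNA barcode read ratio; higher means stronger binding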
T3 chain: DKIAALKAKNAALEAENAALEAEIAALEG

4H3449-AA = target: T4, 4H3449-AA; assay: two-hybrid library CCmax; details: mean of both orientations;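 note: natural log of median RNA to DNA barcode read ratio; higher means stronger binding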
T4 chain: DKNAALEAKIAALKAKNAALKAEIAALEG

4H3777-AA = target: T5, 4H3777-AA; assay: two-hybrid library CCmax; details: mean of both orientations;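 note: natural log of median RNA to DNA barcode read ratio; higher means stronger binding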
T5 chain: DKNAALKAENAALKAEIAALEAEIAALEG

4H2760-AA = target: T6, 4H2760-AA; assay: two-hybrid library CCmax; details: mean of both orientations;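 note: natural log of median RNA to DNA barcode read ratio; higher means stronger binding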
T6 chain: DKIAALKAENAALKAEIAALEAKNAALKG

4H2621-AA = target: T7, 4H2621-AA; assay: two-hybrid library CCmax; details: mean of both orientations
T7 chain: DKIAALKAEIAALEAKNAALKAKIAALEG

4H3629-AA = target: T8, 4H3629-AA; assay: two-hybrid library CCmax; details: mean of both orientations
T8 chain: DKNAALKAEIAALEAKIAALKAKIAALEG

4H324-AA = target: T9, 4H324-AA; assay: two-hybrid library CCmax; details: mean of both orientations
T9 chain: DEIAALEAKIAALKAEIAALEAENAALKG

4H380-AA = target: T10, 4H380-AA; assay: two-hybrid library CCmax; details: mean of both orientations
T10 chain: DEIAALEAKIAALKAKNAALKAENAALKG

4H2774-AA = target: T11, 4H2774-AA; assay: two-hybrid library CCmax; details: mean of both orientations
T11 chain: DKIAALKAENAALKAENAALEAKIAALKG

4H2604-AA = target: T12, 4H2604-AA; assay: two-hybrid library CCmax
T12 chain: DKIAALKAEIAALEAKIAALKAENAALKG

4H2947-AA = target: T13, 4H2947-AA; assay: two-hybrid library CCmax; details: mean of both orientations
T13 chain: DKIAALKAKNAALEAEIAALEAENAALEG

4H2903-AA = target: T14, 4H2903-AA; assay: two-hybrid library CCmax; details: mean of both orientations
T14 chain: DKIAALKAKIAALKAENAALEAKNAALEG

4H341-AA = target: T15, 4H341-AA; assay: two-hybrid library CCmax; details: mean of both orientations
T15 chain: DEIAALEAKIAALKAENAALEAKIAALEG

4H3974-AA = target: T16, 4H3974-AA; assay: two-hybrid library CCmax; details: mean of both orientations
T16 chain: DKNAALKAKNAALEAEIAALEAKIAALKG

4H63-AA = target: T17, 4H63-AA; assay: two-hybrid library CCmax; details: mean of both orientations
T17 chain: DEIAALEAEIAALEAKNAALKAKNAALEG

4H446-AA = target: T18, 4H446-AA; assay: two-hybrid library CCmax; details: mean of both orientations
T18 chain: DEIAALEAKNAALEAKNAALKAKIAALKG

4H3049-AA = target: T19, 4H3049-AA; assay: two-hybrid library CCmax; details: mean of both orientations
T19 chain: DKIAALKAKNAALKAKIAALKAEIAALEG

4H3915-AA = target: T20, 4H3915-AA; assay: two-hybrid library CCmax; details: mean of both orientations
T20 chain: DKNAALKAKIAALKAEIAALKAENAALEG

4H3619-AA = target: T21, 4H3619-AA; assay: two-hybrid library CCmax; details: mean of both orientations
T21 chain: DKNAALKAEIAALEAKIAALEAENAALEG

P9A = target: T22, P9A; assay: two-hybrid library CCNG1
T22 chain: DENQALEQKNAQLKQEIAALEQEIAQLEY

P8A = target: T23, P8A; assay: two-hybrid library CCNG1
T23 chain: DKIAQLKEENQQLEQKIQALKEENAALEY

4H390-AA = target: T24, 4H390-AA; assay: two-hybrid library CCmax; details: mean of both orientations
T24 chain: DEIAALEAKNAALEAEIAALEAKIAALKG

4H775-AA = target: T25, 4H775-AA; assay: two-hybrid library CCmax; details: mean of both orientations
T25 chain: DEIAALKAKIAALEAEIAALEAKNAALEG

4H278-AA = target: T26, 4H278-AA; assay: two-hybrid library CCmax; details: mean of both orientations
T26 chain: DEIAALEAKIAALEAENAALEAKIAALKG

4H3409-AA = target: T27, 4H3409-AA; assay: two-hybrid library CCmax; details: mean of both orientations
T27 chain: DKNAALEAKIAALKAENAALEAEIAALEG

4H2873-AA = target: T28, 4H2873-AA; assay: two-hybrid library CCmax; details: mean of both orientations
T28 chain: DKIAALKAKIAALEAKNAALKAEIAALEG

4H2985-AA = target: T29, 4H2985-AA; assay: two-hybrid library CCmax; details: mean of both orientations
T29 chain: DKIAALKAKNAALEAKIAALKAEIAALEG

4H3940-AA = target: T30, 4H3940-AA; assay: two-hybrid library CCmax; details: mean of both orientations
T30 chain: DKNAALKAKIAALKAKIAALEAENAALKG

4H3134-AA = target: T31, 4H3134-AA; assay: two-hybrid library CCmax; details: mean of both orientations
T31 chain: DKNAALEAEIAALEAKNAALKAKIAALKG

4H87-AA = target: T32, 4H87-AA; assay: two-hybrid library CCmax; details: mean of both orientations
T32 chain: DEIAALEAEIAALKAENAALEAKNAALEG

4H816-AA = target: T33, 4H816-AA; assay: two-hybrid library CCmax; details: mean of both orientations
T33 chain: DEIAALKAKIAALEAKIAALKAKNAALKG

4H3625-AA = target: T34, 4H3625-AA; assay: two-hybrid library CCmax; details: mean of both orientations
T34 chain: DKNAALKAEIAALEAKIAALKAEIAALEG

4H510-AA = target: T35, 4H510-AA; assay: two-hybrid library CCmax; details: mean of both orientations
T35 chain: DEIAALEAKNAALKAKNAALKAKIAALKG

4H2758-AA = target: T36, 4H2758-AA; assay: two-hybrid library CCmax
T36 chain: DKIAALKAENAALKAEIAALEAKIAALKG

4H348-bA = target: T37, 4H348-bA; assay: two-hybrid library CCNG1
T37 chain: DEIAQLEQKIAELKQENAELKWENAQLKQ

4H2839-bA = target: T38, 4H2839-bA; assay: two-hybrid library CCNG1
T38 chain: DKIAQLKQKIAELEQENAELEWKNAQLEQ

4H492-bA = target: T39, 4H492-bA; assay: two-hybrid library CCNG1
T39 chain: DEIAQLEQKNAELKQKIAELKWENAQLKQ

4H477-bA = target: T40, 4H477-bA; assay: two-hybrid library CCNG1
T40 chain: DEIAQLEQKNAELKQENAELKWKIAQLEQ

4H40-bA = target: T41, 4H40-bA; assay: two-hybrid library CCNG1
T41 chain: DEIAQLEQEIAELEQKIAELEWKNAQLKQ

4H319-bA = target: T42, 4H319-bA; assay: two-hybrid library CCNG1
T42 chain: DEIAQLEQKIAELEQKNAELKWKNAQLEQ

4H3057-bA = target: T43, 4H3057-bA; assay: two-hybrid library CCNG1
T43 chain: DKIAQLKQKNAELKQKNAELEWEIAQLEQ

4H3277-bA = target: T44, 4H3277-bA; assay: two-hybrid library CCNG1
T44 chain: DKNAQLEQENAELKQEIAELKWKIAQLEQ

4H741-bA = target: T45, 4H741-bA; assay: two-hybrid library CCNG1
T45 chain: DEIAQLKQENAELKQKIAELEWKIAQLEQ

4H2915-bA = target: T46, 4H2915-bA; assay: two-hybrid library CCNG1
T46 chain: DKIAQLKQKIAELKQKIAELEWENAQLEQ

interaction score (4H3094-AA): -1.23 | interaction score (4H432-AA): -1.37 | interaction score (4H2961-AA): -1.69 | interaction score (4H3449-AA): -0.758 | interaction score (4H3777-AA): -1.38 | interaction score (4H2760-AA): -1.02 | interaction score (4H2621-AA): -0.139 | interaction score (4H3629-AA): 1.84 | interaction score (4H324-AA): 2.07 | interaction score (4H380-AA): 1.01 | interaction score (4H2774-AA): -1.79 | interaction score (4H2604-AA): 1.78 | interaction score (4H2947-AA): -1.68 | interaction score (4H2903-AA): -0.407 | interaction score (4H341-AA): 0.155 | interaction score (4H3974-AA): -0.774 | interaction score (4H63-AA): -1.37 | interaction score (4H446-AA): -1.79 | interaction score (4H3049-AA): -0.492 | interaction score (4H3915-AA): 0.216 | interaction score (4H3619-AA): -0.188
B1: 4H2604-AA (peptide)
chain: DKIAALKAEIAALEAKIAALKAENAALKG

interaction score (P9A): -1.56 | interaction score (P8A): -1.27
B2: P8A (peptide)
chain: DKIAQLKEENQQLEQKIQALKEENAALEY

interaction score (4H390-AA): 0.895 | interaction score (4H775-AA): -0.652 | interaction score (4H278-AA): -0.138 | interaction score (4H3409-AA): -0.325 | interaction score (4H2873-AA): -0.654 | interaction score (4H2985-AA): 1.59 | interaction score (4H3940-AA): -1.45 | interaction score (4H3134-AA): 0.499 | interaction score (4H87-AA): -1.35 | interaction score (4H816-AA): -1.38 | interaction score (4H3625-AA): -0.393 | interaction score (4H510-AA): 0.225 | interaction score (4H2758-AA): 1.56
B3: 4H2758-AA (peptide)
chain: DKIAALKAENAALKAEIAALEAKIAALKG

interaction score (4H348-bA): -0.533 | interaction score (4H2839-bA): 0.104 | interaction score (4H492-bA): -0.582 | interaction score (4H477-bA): -0.768 | interaction score (4H40-bA): 1.35 | interaction score (4H319-bA): 1.61 | interaction score (4H3057-bA): -0.0141 | interaction score (4H3277-bA): -0.969 | interaction score (4H741-bA): -0.816 | interaction score (4H2915-bA): -0.223
B4: 4H2839-bA (peptide)
chain: DKIAQLKQKIAELEQENAELEWKNAQLEQ
